Test results: patent US20240254254

B1: TAP1 NBD of SEQ ID NO:87 with a peptide comprising a SpyTag3, TEV protease site and a His tag attached at the C-terminus (protein)
chain: MPPSGLLTPLHLEGLVQFQDVSFAYPNRPDVLVLQGLTFTLRPGEVTALVGPNGSGKSTVAALLQNLYQPTGGQLLLDGKPLPQYEHRYLHRQVAAVGQEPQVFGRSLQENIAYGLTQKPTMEEITAAAVKSGAHSFISGLPQGYDTEVDEAGSQLSGGQRQAVALARALIRKPSVLILDNATSALDAGNQLRVQRLLYESPERYSRSVLLITQHLSLVEQADHILFLEGGAIREGGTHQQLMEKKGSYWAMVQAPADAPE
B2: human TAP1 NBD comprising N676G, S677N, Q680R, E682Q and Q683R substitutions, substitutions of cysteines with serines (SEQ ID NO:10) and a C-terminal His tag (protein)
chain: GLLTPLHLEGLVQFQDVSFAYPNRPDVLVLQGLTFTLRPGEVTALVGPNGSGKSTVAALLQNLYQPTGGQLLLDGKPLPQYEHRYLHRQVAAVGQEPQVFGRSLQENIAYGLTQKPTMEEITAAAVKSGAHSFISGLPQGYDTEVDEAGSQLSGGQRQAVALARALIRKPSVLILDNATSALDAGNQLRVQRLLYESPERYSRSVLLITQHLSLVEQADHILFLEGGAIREGGTHQQLMEKKGSYWAMVQAPADAPE

Assays:
[1] = size exclusion chromatography (Superdex S200 Increase) in 1 mM ADP buffer
[2] = size exclusion chromatography (Superdex S200 Increase) in 1 mM ATP buffer
[3] = size exclusion chromatography in 1 mM ATP (dimer state)
[4] = size exclusion chromatography in 1 mM ADP (monomer state)

Protein	elution volume (SEC) in 1 mM ADP [1]	elution volume (SEC) in 1 mM ATP [2]	effective molecular weight (SEC) in 1 mM ATP [3]	effective molecular weight (SEC) in 1 mM ADP [4]
B1	the ADP sample eluted at 16.81 ml	The ATP-containing sample eluted at a volume of 15.75 ml		
B2			in the presence of ATP the protein chromatographs with an effective molecular weight of 57 kDa	in the presence of ADP the protein chromatographs with an effective molecular weight of 37 kDa
